According to PMC3206076, “Structural, Stability, Dynamic and Binding Properties of the ALS-Causing T46I Mutant of the hVAPB MSP Domain as Revealed by NMR and MD Simulations” (PLoS ONE, 2011):
Blank lines part the entries; values can stand above or below the molecule they belong to.

Experiments:
[1] = target: Nir2 peptide FFAT motif (Homo sapiens) (UniProt O00562); assay: ITC; settings: cited from earlier work
[2] = target: T1, T46I mutant of the hVAPB MSP domain (human, UniProt O95292 1-125, T46I); assay: ITC; Microcal VP; peptide or EphA4 (300 µM) in the syringe, MSP protein (10 µM) in the cell; 50 mM Tris-HCl, 150 mM NaCl, 2 mM DTT, pH 7.5, 25°C; single binding site model; settings: both partners purified
T1 construct: human VAPB MSP domain, residues 1-125, with the ALS-causing T46I mutation found in non-Brazilian kindred; Made by site-directed mutagenesis on the WT-MSP construct; PDB 3IKK is the structure of the WT parent; 15N-labelled for the HSQC titrations in which its own spectrum was observed; also called T46I-MSP domain; T46I-MSP
T1 sequence (O95292 1-125 T46I): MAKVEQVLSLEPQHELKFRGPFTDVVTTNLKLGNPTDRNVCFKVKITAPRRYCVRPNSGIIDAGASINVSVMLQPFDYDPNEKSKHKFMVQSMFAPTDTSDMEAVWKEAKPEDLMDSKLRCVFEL

[3] = target: T46I mutant of the hVAPB MSP domain (human, UniProt O95292 1-125, T46I); assay: ITC
Target sequence in this assay (O95292 1-125 T46I): as above

[4] = target: T2, wild-type (WT) hVAPB MSP domain (residues 1–125) (human, UniProt O95292 1-125); assay: NMR titration; 1H-15N HSQC of 15N-labeled WT-/T46I-MSP (100 µM) without or with unlabeled Nir2 peptide or EphA4 at molar ratios 1:0.5 to 1:8; 10 mM phosphate buffer, pH 6.8, 25°C; settings: both partners purified
T2 construct: human VAPB (vesicle-associated membrane protein-associated protein B), MSP domain, residues 1-125; 15N-labelled for the HSQC titrations in which its own spectrum was observed; also called WT-MSP domain; WT-MSP
T2 sequence (O95292 1-125): as the sequence (O95292 1-125 T46I) above, with I46T counted along it

Molecule: VAPB MSP (from UniProt O95292)
Kd [1]: 650 nM

Kd [2]: 2200 nM
Ka [3]: 455000 M⁻¹
binding result [4]: binds
B1: Nir2 peptide (EEEFFDAHE) (peptide)
peptide: EEEFFDAHE
notes: FFAT-motif peptide of the Nir2 protein; also called the peptide; source: synthetic peptide, bought: Genesis Biotech Inc., further purified by HPLC (reverse-phase C18)
